Molecular target: the molecule itself
Assay: cross-linking + AUC; PF4 cross-linked with 1 mg/mL EDC (equal v:v) in 15 mM MES pH 8.0, 6 h, ambient temperature, stopped with 1 M Tris pH 7.4; oligomeric species analysed by SDS-PAGE and ultracentrifugation

B1: cross-linked platelet factor 4 (natural protein, human, UniProt P02776 32-101, looked up)
chain: EAEEDGDLQCLCVKTTSQVRPRHITSLEVIKAGPHCPTAQLIATLKNGRKICLDLQAPLYKKIIKKLLES
modifications: chemically cross-linked with 1-ethyl-3-(3-dimethylaminopropyl) carbodiimide (EDC); cross-linked residues not stated
notes: Platelet factor 4 (PF4, CXCL4), human, recombinant; The bought recombinant protein is probably the mature 70-residue chemokine (surmised); also called c-PF4; cross-linked PF4; source: bought: Protein Foundry LLC (recombinant PF4, Human CXCL4); cross-linked with EDC
stoichiometry N: 4
